Data on five sequences can be found in the supplement of paper PMC5998384.

Data set [1] deals with HeLa Kyoto. As to the kind of experiment: thermal stability score vs G1/S (z-score of summed log2 fold changes over temperatures); higher = more thermally stable than in G1/S.
Data set [2] has as its system HeLa Kyoto. Briefly: solubility change mitosis vs G1/S (difference of NP-40 vs SDS log2 ratios) (log2 ratio difference); higher = more soluble in mitosis.
Data set [3] relates to HeLa Kyoto. Briefly: solubility in G1/S (NP-40 vs SDS abundance) (log2 ratio); higher = more soluble. The note with it: cell cycle stage: G1/S.
The subject of data set [4] is HeLa Kyoto. As to the kind of experiment: melting temperature (median over replicates), in situ; higher = more thermally stable.
The mark [5] stands for this setting: cell cycle stage: early G1 (4.5 h after nocodazole release).
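For melting temperature (median over replicates), in situ in this document: HeLa Kyoto cells synchronized by double thymidine or nocodazole block, proteins quantified by TMT10plex mass spectrometry, three independent biological replicates.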
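For solubility change mitosis vs G1/S (difference of NP-40 vs SDS log2 ratios) in this document: synchronized HeLa Kyoto cells (double thymidine block for G1/S, nocodazole release for mitosis), protein amounts in NP-40 versus SDS lysates quantified by mass spectrometry, three biological replicates.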
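For solubility in G1/S (NP-40 vs SDS abundance) in this document: HeLa Kyoto cells arrested at G1/S by double thymidine block, proteins quantified by TMT10plex mass spectrometry in mild NP-40 versus SDS extracts, three biological replicates.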
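For thermal stability score vs G1/S (z-score of summed log2 fold changes over temperatures) in this document: synchronized HeLa Kyoto cells, proteins quantified by TMT10plex mass spectrometry, three biological replicates, mitosis taken 0.5 h after nocodazole release, G1/S directly after double thymidine block.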

Turning to “MRMSVGLSLLLPLSGRTFLLLLSVVMAQSHWPSEPSEAVRDWENQLEASMHSVLSDLHEAVPTVVGIPDGTAVVGRSFRVTIPTDLIASSGDIIKVSAAGKEALPSWLHWDSQSHTLEGLPLDTDKGVHYISVSATRLGANGSHIPQTSSVFSIEVYPEDHSELQSVRTASPDPGEVVSSACAADEPVTVLTVILDADLTKMTPKQRIDLLHRMRSFSEVELHNMKLVPVVNNRLFDMSAFMAGPGNAKKVVENGALLSWKLGCSLNQNSVPDIHGVEAPAREGAMSAQLGYPVVGWHIANKKPPLPKRVRRQIHATPTPVTAIGPPTTAIQEPPSRIVPTPTSPAIAPPTETMAPPVRDPVPGKPTVTIRTRGAIIQTPTLGPIQPTRVSEAGTTVPGQIRPTMTIPGYVEPTAVATPPTTTTKKPRVSTPKPATPSTDSTTTTTRRPTKKPRTPRPVPRVTTKVSITRLETASPPTRIRTTTSGVPRGGEPNQRPELKNHIDRVDAWVGTYFEVKIPSDTFYDHEDTTTDKLKLTLKLREQQLVGEKSWVQFNSNSQLMYGLPDSSHVGKHEYFMHATDKGGLSAVDAFEIHVHRRPQGDRAPARFKAKFVGDPALVLNDIHKKIALVKKLAFAFGDRNCSTITLQNITRGSIVVEWTNNTLPLEPCPKEQIAGLSRRIAEDDGKPRPAFSNALEPDFKATSITVTGSGSCRHLQFIPVVPPRRVPSEAPPTEVPDRDPEKSSEDDVYLHTVIPAVVVAAILLIAGIIAMICYRKKRKGKLTLEDQATFIKKGVPIIFADELDDSKPPPSSSMPLILQEEKAPLPPPEYPNQSVPETTPLNQDTMGEYTPLRDEDPNAPPYQPPPPFTAPMEGKGSRPKNMTPYRSPPPYVPP [DAG1]”, the results for the thermal stability score in data set [1] (setting [5]) and in data set [1] (cell cycle stage: mitosis) were -2.43 and -3.27, respectively. Also, the “solubility change mitosis (log2)” value in data set [2] was determined as 0.19. For the same sequence, in data set [3], the “solubility in G1/S (log2)” value was -0.103. The melting temperature in data set [4] (cell cycle stage: G1/S) was determined as 54.1 °C; in data set [4] (cell cycle stage: mitosis), 54.9 °C.
For “MRPGTGAERGGLMVSEMESHPPSQGPGDGERRLSGSSLCSGSWVSADGFLRRRPSMGHPGMHYAPMGMHPMGQRANMPPVPHGMMPQMMPPMGGPPMGQMPGMMSSVMPGMMMSHMSQASMQPALPPGVNSMDVAAGTASGAKSMWTEHKSPDGRTYYYNTETKQSTWEKPDDLKTPAEQLLSKCPWKEYKSDSGKPYYYNSQTKESRWAKPKELEDLEGYQNTIVAGSLITKSNLHAMIKAEESSKQEECTTTSTAPVPTTEIPTTMSTMAAAEAAAAVVAAAAAAAAAAAAANANASTSASNTVSGTVPVVPEPEVTSIVATVVDNENTVTISTEEQAQLTSTPAIQDQSVEVSSNTGEETSKQETVADFTPKKEEEESQPAKKTYTWNTKEEAKQAFKELLKEKRVPSNASWEQAMKMIINDPRYSALAKLSEKKQAFNAYKVQTEKEEKEEARSKYKEAKESFQRFLENHEKMTSTTRYKKAEQMFGEMEVWNAISERDRLEIYEDVLFFLSKKEKEQAKQLRKRNWEALKNILDNMANVTYSTTWSEAQQYLMDNPTFAEDEELQNMDKEDALICFEEHIRALEKEEEEEKQKSLLRERRRQRKNRESFQIFLDELHEHGQLHSMSSWMELYPTISSDIRFTNMLGQPGSTALDLFKFYVEDLKARYHDEKKIIKDILKDKGFVVEVNTTFEDFVAIISSTKRSTTLDAGNIKLAFNSLLEKAEAREREREKEEARKMKRKESAFKSMLKQAAPPIELDAVWEDIRERFVKEPAFEDITLESERKRIFKDFMHVLEHECQHHHSKNKKHSKKSKKHHRKRSRSRSGSDSDDDDSHSKKKRQRSESRSASEHSSSAESERSYKKSKKHKKKSKKRRHKSDSPESDAEREKDKKEKDRESEKDRTRQRSESKHKSPKKKTGKDSGNWDTSGSELSEGELEKRRRTLLEQLDDDQ [PRPF40A]”, the thermal stability score in data set [1] (setting [5]) stood at 1.36; in data set [1] (cell cycle stage: mitosis), 6.53. Besides, in data set [2], the “solubility change mitosis (log2)” value stood at 0.633. Further, the “solubility in G1/S (log2)” value in data set [3] was -1.2. Further, the melting temperature turned out to be 47.1 °C in data set [4] (cell cycle stage: G1/S) and 48.8 °C in data set [4] (cell cycle stage: mitosis).
Take “MRPLTEEETRVMFEKIAKYIGENLQLLVDRPDGTYCFRLHNDRVYYVSEKIMKLAANISGDKLVSLGTCFGKFTKTHKFRLHVTALDYLAPYAKYKVWIKPGAEQSFLYGNHVLKSGLGRITENTSQYQGVVVYSMADIPLGFGVAAKSTQDCRKVDPMAIVVFHQADIGEYVRHEETLT [NIP7]”: the thermal stability score in data set [1] (setting [5]) was -2; in data set [1] (cell cycle stage: mitosis), -2.49. The “solubility change mitosis (log2)” value in data set [2] was 0.622. Further, the “solubility in G1/S (log2)” value in data set [3] was -1.97. In addition, the results for the melting temperature in data set [4] (cell cycle stage: G1/S) and in data set [4] (cell cycle stage: mitosis) were 55.5 °C and 53.8 °C, respectively.
For the sequence “MRQKRKGDLSPAELMMLTIGDVIKQLIEAHEQGKDIDLNKVKTKTAAKYGLSAQPRLVDIIAAVPPQYRKVLMPKLKAKPIRTASGIAVVAVMCKPHRCPHISFTGNICVYCPGGPDSDFEYSTQSYTGYEPTSMRAIRARYDPFLQTRHRIEQLKQLGHSVDKVEFIVMGGTFMALPEEYRDYFIRNLHDALSGHTSNNIYEAVKYSERSLTKCIGITIETRPDYCMKRHLSDMLTYGCTRLEIGVQSVYEDVARDTNRGHTVKAVCESFHLAKDSGFKVVAHMMPDLPNVGLERDIEQFTEFFENPAFRPDGLKLYPTLVIRGTGLYELWKSGRYKSYSPSDLVELVARILALVPPWTRVYRVQRDIPMPLVSSGVEHGNLRELALARMKDLGIQCRDVRTREVGIQEIHHKVRPYQVELVRRDYVANGGWETFLSYEDPDQDILIGLLRLRKCSEETFRFELGGGVSIVRELHVYGSVVPVSSRDPTKFQHQGFGMLLMEEAERIAREEHGSGKIAVISGVGTRNYYRKIGYRLQGPYMVKMLK [ELP3]”, the results for the thermal stability score in data set [1] (setting [5]) and in data set [1] (cell cycle stage: mitosis) were 0.13 and -1.12, respectively. Besides, the “solubility change mitosis (log2)” value in data set [2] is -0.0597. Further, in data set [3], the “solubility in G1/S (log2)” value was -0.062. The melting temperature was 51.9 °C in data set [4] (cell cycle stage: G1/S) and 51.4 °C in data set [4] (cell cycle stage: mitosis).
“MRRAALRLCALGKGQLTPGRGLTQGPQNPKKQGIFHIHEVRDKLREIVGASTNWRDHVKAMEERKLLHSFLAKSQDGLPPRRMKDSYIEVLLPLGSEPELREKYLTVQNTVRFGRILEDLDSLGVLICYMHNKIHSAKMSPLSIVTALVDKIDMCKKSLSPEQDIKFSGHVSWVGKTSMEVKMQMFQLHGDEFCPVLDATFVMVARDSENKGPAFVNPLIPESPEEEELFRQGELNKGRRIAFSSTSLLKMAPSAEERTTIHEMFLSTLDPKTISFRSRVLPSNAVWMENSKLKSLEICHPQERNIFNRIFGGFLMRKAYELAWATACSFGGSRPFVVAVDDIMFQKPVEVGSLLFLSSQVCFTQNNYIQVRVHSEVASLQEKQHTTTNVFHFTFMSEKEVPLVFPKTYGESMLYLDGQRHFNSMSGPATLRKDYLVEP [ACOT9]”: the thermal stability score in data set [1] (setting [5]) is -1.25; in data set [1] (cell cycle stage: mitosis), 1.48. Also, the “solubility change mitosis (log2)” value in data set [2] is -0.0152. Also, the “solubility in G1/S (log2)” value in data set [3] is -0.111. The results for the melting temperature in data set [4] (cell cycle stage: G1/S) and in data set [4] (cell cycle stage: mitosis) were 52.9 °C and 53.7 °C, respectively.
